Measurements taken from US20240101635A1 (AKSTON BIOSCIENCES, published 2024).
Read-outs that look alike come from different tables or passages of the source.

What was measured:
[1] = molecular target: T1, human insulin receptor (human, UniProt P06213 28-1382); assay: competition with biotinylated RHI on IM-9 cells, flow cytometry, 4 C
T1 construct: whole, on cells; Endogenous receptor on IM-9 cells; also called IR
Protocol: (§1) 40 μL of an IM-9 cell suspension (8×10⁶ cells/mL) was then added to each well by multichannel pipette, mixed again gently and incubated on ice for 30 min to allow competitive binding on the insulin receptor on IM-9 cells. Cells were then washed twice with 275 μL of ice-cold FACS wash buffer (HBSS/2 mM EDTA/0.1% Na-azide+0.5% horse serum) by centrifuging the V-bottom plate at 3000 rpm for 3 min and aspirating the supernatant. Cells were then resuspended in 40 μL of FACS staining medium containing 1:100 diluted Streptavidin-PE (Life Technologies) for 20 min on ice. Cells were then washed once with 275 μL of ice-cold FACS buffer and finally fixed with 3% paraformaldehyde for 10 min at room temp. Cells were then washed once with 275 μL of ice-cold FACS buffer and resuspended in 250 μl of FACS buffer for analysis.
The V-bottom plates containing cells were then analyzed on a Guava 8-HT flow cytometer (Millipore). Biotinylated-RHI binding to insulin receptor was quantitated by the median fluorescence intensity (MFI) of the cells on the FACS FL-2 channel for each concentration of the test compound. Control wells were labeled only with biotinylated-RHI and were used to calculate the percent (%) inhibition resulting from each test compound concentration. The % inhibition by test compounds of biotinylated-RHI binding on IM-9 cells was plotted against log concentrations of the test compound, and the resulting IC50 values were calculated using GraphPad Prism (GraphPad Software, La Jolla, CA) for the test compounds. Lower IC50 values of the test compound therefore indicate greater levels of biotinylated-RHI inhibition at lower concentrations indicating stronger binding of the insulin-Fc fusion protein to the insulin receptor. A control compound, such as unlabeled recombinant human insulin (RHI) was also used as an internal standard to generate an RHI IC50 against which a given compound IC50 could be ratioed (IC50(compound)/IC50(RHI)). Lower IC50 ratios have more similar binding to RHI (stronger binding to insulin receptor), while higher IC50 ratios have weaker binding to the insulin receptor relative to RHI.

[2] = molecular target: biotinylated canine FcRn (canine, UniProt A0A8I3PFR8 25-347, biotinylated (site not stated)); assay: ELISA pH 5.5, fusion protein coated, biotinylated canine FcRn titrated
Protocol: Insulin-Fc fusion proteins comprising Fc fragments of canine or feline origin were diluted to 10 μg/ml in sodium bicarbonate pH 9.6 buffer and coated in duplicate on Maxisorb ELISA plate strips for 1-2 hours at RT. The strips were then washed 4 times with PBST (PBS/0.1% Tween-20) buffer and blocked with Superblock blocking reagent (ThermoFisher). Strips for FcRn binding were then washed again twice with pH 5.5 MES/NaCl/Tween (50 mM MES/l50 mM NaCl/0.1% Tween-20) buffer before addition of the FcRn reagent (biotinylated canine FcRn; Immunitrack). […] Serial dilutions (1:3× dilutions) of biotinylated FcRn reagent were prepared in pH 5.5 MES/NaCl/Tween/10% Superblock buffer at concentrations from 1000 ng/ml to 0.45 ng/ml and loaded at 100 μL/well using a multichannel pipettor onto the strips coated with the insulin-Fc fusion protein compounds. The assay plate was then incubated for 1 hour at room temperature. FcRn binding strips were washed 4 times with pH 5.5 MES/NaCl/Tween buffer and then loaded with 100 μl/well […] diluted 1:10000 in pH 5.5 MES/NaCl/10% Superblock buffer. After incubating for 45 minutes, strips were washed again 4 times with pH 5.5 MES/NaCl/Tween buffer. TMB was finally added to reveal the bound biotinylated-canine FcRn reagent, and the color development was stopped with the ELISA stop reagent. The plate was read in an ELISA plate reader at a wavelength of 450 nm. The OD values (proportional to the binding of canine-FcRn to the insulin-Fc fusion protein test compounds) were plotted against log concentrations of FcRn added to each well to generate binding curves using GraphPad Prism software. EC50 values for each binding curve were calculated to compare between different compounds.

[3] = molecular target: T2, biotinylated recombinant human Fc(gamma) receptor I (human, UniProt P12314 16-288, biotinylated (site not stated)); assay: ELISA, fusion protein coated, biotinylated rhFc(gamma)RI at 3000 ng/mL, pH 7.4
T2 construct: Bought reagent, used as surrogate for canine/feline Fc(gamma)RI; also called rhFc(gamma) receptor I; Fc(gamma)RI
Protocol: The binding of insulin-Fc fusion proteins to the Fc(gamma) receptor I at pH 7.4 was conducted using an ELISA assay as follows. Since neither canine nor feline Fc(gamma) receptor I was not commercially available, human Fc(gamma) receptor I (i.e., rhFc(gamma) receptor I) was used as a surrogate mammalian receptor. Insulin-Fc compounds were diluted to 10 μg/mL in sodium bicarbonate buffer at pH 9.6 and coated on Maxisorp (Nunc) microtiter plates overnight at 4° C., after which the microplate strips were washed 5 times with PBST (PBS/0.05% Tween-20) buffer and blocked with Superblock blocking reagent (ThermoFisher). Serial dilutions of biotinylated rhFc(gamma) receptor I (recombinant human Fc(gamma)R-I; R&D Systems) were prepared in PBST/10% Superblock buffer from 6000 ng/mL to 8.2 ng/mL and loaded at 100 μL/well onto the microplate strips coated with insulin-Fc fusion protein. The microtiter plate was incubated for 1 hour at room temperature after which the microplate strips were washed 5 times with PBST and then loaded with 100 μL/well of streptavidin-HRP diluted 1:10000 in PBST/10% Superblock buffer. After incubating for 45 min, the microplate strips were washed again 5 times with PBST. TMB was added to reveal the bound Fc(gamma) receptor I proteins and stopped with ELISA stop reagent (Boston Bioproducts). The plate was read in an ELISA plate reader at 450 nm, and the OD values (proportional to the binding of rhFc(gamma) receptor I to insulin-Fc protein) were plotted against log concentrations of rhFc(gamma) receptor I added to each well to generate binding curves using GraphPad Prism software.
Finally, select compounds were tested for their likelihood to interact with the immune system by measuring their Fc(gamma) receptor binding activity according to the procedure of Example 8. Table 19 compares the Fc(gamma) receptor I binding of these insulin-Fc fusion proteins with the Fc(gamma) receptor binding of the insulin-Fc fusion protein of SEQ ID NO: 52.

[4] = molecular target: T1, human insulin receptor; assay: competition with biotinylated RHI on IM-9 cells, flow cytometry, 4 C; remark: listed apart in the source
Protocol: Cultures of IM-9 cells were centrifuged at 250×g (˜1000 rpm) for 10 min to pellet the cells. Cells were washed once with HBSS or PBS buffer, resuspended in cold FACS staining medium (HBSS/2 mM EDTA/0.1% Na-azide+4% horse serum) to a concentration of 8×10⁶ cells/mL and kept on ice or 4° C. until test solutions were made. The insulin-Fc protein was diluted in FACS buffer in 1:3 serial dilutions as 2× concentrations in 1.2 mL tubes (approx. 60 μL volume of each dilution), and the solutions were kept cold on ice until ready for pipetting.
40 μL of an IM-9 cell suspension (8×10⁶ cells/mL) was then added to each well by multichannel pipette, mixed again gently and incubated on ice for 30 min to allow competitive binding on the insulin receptor on IM-9 cells. […]
(§2) The V-bottom plates containing cells were then analyzed on a Guava 8-HT flow cytometer (Millipore). Biotinylated-RHI binding to insulin receptor was quantitated by the median fluorescence intensity (MFI) of the cells on the FACS FL-2 channel for each concentration of the test compound. […] The % inhibition by test compounds of biotinylated-RHI binding on IM-9 cells was plotted against log concentrations of the test compound, and the resulting IC50 values were calculated using GraphPad Prism (GraphPad Software, La Jolla, CA) for the test compounds.

[5] = molecular target: T1, human insulin receptor; assay: as above; remark: listed apart in the source
Protocol: as §1
as §2, with “compounds. […]” for “compounds.”

T1 sequence (P06213 28-1382): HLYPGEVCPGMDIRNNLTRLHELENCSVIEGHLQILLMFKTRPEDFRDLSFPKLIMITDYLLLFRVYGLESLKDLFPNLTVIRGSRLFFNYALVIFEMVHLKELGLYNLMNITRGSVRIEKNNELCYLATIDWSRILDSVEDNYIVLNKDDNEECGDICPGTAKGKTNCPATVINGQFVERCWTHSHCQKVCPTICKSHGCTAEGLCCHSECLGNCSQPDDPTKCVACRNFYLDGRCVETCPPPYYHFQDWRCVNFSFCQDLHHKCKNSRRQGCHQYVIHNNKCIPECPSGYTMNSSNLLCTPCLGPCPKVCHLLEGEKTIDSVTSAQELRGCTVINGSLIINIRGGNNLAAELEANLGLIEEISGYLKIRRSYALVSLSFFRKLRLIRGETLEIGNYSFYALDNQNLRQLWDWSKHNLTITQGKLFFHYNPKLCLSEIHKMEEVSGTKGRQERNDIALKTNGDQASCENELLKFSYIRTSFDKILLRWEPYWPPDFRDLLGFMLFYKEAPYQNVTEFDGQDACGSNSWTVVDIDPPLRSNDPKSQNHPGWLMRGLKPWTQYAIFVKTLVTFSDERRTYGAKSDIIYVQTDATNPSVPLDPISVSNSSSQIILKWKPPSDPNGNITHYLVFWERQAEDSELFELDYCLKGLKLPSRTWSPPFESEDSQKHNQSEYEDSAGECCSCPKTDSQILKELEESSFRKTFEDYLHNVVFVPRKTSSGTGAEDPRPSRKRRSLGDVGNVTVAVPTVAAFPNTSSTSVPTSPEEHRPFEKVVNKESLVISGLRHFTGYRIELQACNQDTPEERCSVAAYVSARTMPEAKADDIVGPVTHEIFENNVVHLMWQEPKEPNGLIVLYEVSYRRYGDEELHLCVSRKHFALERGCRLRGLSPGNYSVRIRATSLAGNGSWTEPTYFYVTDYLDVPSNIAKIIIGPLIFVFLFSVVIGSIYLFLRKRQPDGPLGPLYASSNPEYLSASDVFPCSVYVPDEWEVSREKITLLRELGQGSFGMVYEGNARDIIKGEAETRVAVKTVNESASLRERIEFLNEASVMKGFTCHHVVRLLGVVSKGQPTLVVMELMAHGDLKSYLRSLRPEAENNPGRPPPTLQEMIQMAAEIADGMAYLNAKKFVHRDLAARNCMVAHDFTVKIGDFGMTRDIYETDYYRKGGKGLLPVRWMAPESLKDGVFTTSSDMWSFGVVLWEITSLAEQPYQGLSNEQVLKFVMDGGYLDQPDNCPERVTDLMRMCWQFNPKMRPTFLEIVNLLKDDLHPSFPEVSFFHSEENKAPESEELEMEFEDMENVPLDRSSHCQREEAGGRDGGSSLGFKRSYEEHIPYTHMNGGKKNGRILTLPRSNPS
T2 sequence (P12314 16-288 limits assumed): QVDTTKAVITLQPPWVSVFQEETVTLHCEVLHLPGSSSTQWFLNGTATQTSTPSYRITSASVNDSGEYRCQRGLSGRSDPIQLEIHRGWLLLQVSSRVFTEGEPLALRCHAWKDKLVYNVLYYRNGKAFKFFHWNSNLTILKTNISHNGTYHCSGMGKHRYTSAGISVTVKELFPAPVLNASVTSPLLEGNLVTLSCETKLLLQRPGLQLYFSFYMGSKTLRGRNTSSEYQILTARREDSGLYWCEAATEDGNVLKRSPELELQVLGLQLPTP
Sequence of biotinylated canine FcRn (A0A8I3PFR8 entry or part of it): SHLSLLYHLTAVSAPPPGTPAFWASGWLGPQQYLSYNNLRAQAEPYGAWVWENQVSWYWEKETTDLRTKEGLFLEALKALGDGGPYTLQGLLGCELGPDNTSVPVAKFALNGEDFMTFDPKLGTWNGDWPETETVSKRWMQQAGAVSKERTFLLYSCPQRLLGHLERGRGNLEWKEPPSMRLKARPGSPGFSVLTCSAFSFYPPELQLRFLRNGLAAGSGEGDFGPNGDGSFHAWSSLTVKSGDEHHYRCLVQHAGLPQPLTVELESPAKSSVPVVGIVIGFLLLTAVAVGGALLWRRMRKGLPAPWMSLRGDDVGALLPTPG

B1: insulin-Fc fusion protein of SEQ ID NO: 32 (Fc fusion)
chain: FVNQHLCGSHLVEALELVCGERGFHYGGGGGGSGGGGGIVEQCCTSTCSLDQLENYCGGGGGQGGGGQGGGGQGGGGGDCPKCPAPEMLGGPSVFIFPPKPKDTLLIARTPEVTCVVVDLDPEDPEVQISWFVDGKQMQTAKTQPREEQFNGTYRVVSVLPIGHQDWLKGKQFTCKVNNKALPSPIERTISKARGQAHQPSVYVLPPSREELSKNTVSLTCLIKDFFPPDIDVEWQSNGQQEPESKYRTTPPQLDEDGSYFLYSKLSVDKSRWQRGDTFICAVMHEALHNHYTQESLSHSPG
notes: homodimer; also called 218d
In the case of B1, the IC50 [1] is reported as 2340 nM, the EC50 [2] is reported as 0.599 µg/mL and the “OD450 nm Minus Assay Background” value [3] is reported as 0.311 OD450. For the same binder, the “OD450 nm at a Fc(gamma)RI concentration of 3000 (ng/mL)” value [3] was 0.368 OD450, the “Ratio to SEQ ID NO: 52” value [3] was 0.84 ratio and the IC50 [4] was 2340 nM. It also gave an IC50 [5] of 2340 nM.
